Legend:
[1] = test system: P. aeruginosa strains (PAO1, 33356, 6294, 6077, 6206, PA103A); test: Acute pneumonia model in mice, survival; format: in vivo, Pseudomonas aeruginosa
Method: (§1) Antibodies or PBS were administered 24 hours before infection in each model. P. aeruginosa acute pneumonia, keratitis, and thermal injury infection models were performed as described (DiGiandomenico, A., et al., Proc Natl Acad Sci USA 104, 4624-4629 (2007)), with modifications. In the acute pneumonia model, BALB/c mice (The Jackson Laboratory) were infected with P. aeruginosa strains suspended in a 0.05 ml inoculum. In the thermal injury model, CF-1 mice (Charles River) received a 10% total body surface area burn with a metal brand heated to 92° C. for 10 seconds. Animals were infected subcutaneously with P. aeruginosa strain 6077 at the indicated dose. For organ burden experiments, acute pneumonia was induced in mice followed by harvesting of lungs, spleens, and kidneys 24 hours post-infection for determination of CFU.
The in vivo effect of administration of an anti-PcrV antibodies was studied in mice using an acute pneumonia model. Groups of mice were treated with either increasing concentrations of the V2L2 antibody, a positive control anti-PcrV antibody (mAb166), or a negative control (R347), as shown in FIG. 13 (A-B). Groups of mice were also treated with either increasing concentrations of the V2L2 antibody, the PcrV antibody PcrV-02, or a negative control (R347), as shown in FIG. 13 (C-D). Twenty-four hours after treatment, all mice were infected with 5×10^7 CFU (C) Pseudomonas aeruginosa 6294 (06) or (D) PA103A (O11).
Groups of mice were treated with either increasing concentrations of the 11A6, 3G5 or V2L7, the same concentrations of 29D2, 1F3, 1E6, V2L2, LE10, SH3, 4A8, 2H3, or 21F1, increasing concentrations of the 29D2, increasing concentrations of the V2L2, the PcrV antibody PcrV-02, or a negative control (R347), as shown in FIG. 13 (E-H). Mice were injected intraperitoneally (IP) with mAbs 24 hours prior to intranasal infection with Pseudomonas strain 6077 (1×10^6 CFU/animal).

[2] = test system: luminescent P. aeruginosa serogroup 05 strain (PAO1.lux); test: Opsonophagocytic killing (OPK) assay, PAO1.lux; format: cell-based, Pseudomonas aeruginosa; settings: purified human IgG1 mAbs from phage panning; FIG. 2A
Method: (§2) This example describes the evaluation of prioritized human IgG1 antibodies to promote OPK of P. aeruginosa. […] OPK assays were performed as described in (DiGiandomenico, A., et al., Infect Immun 72, 7012-7021 (2004)), with modifications. Briefly, assays were performed in 96-well plates using 0.025 ml of each OPK component; P. aeruginosa strains; diluted baby rabbit serum; differentiated HL-60 cells; and monoclonal antibody. In some OPK assays, luminescent P. aeruginosa strains, which were constructed as described (Choi, K. H., et al., Nat Methods 2, 443-448 (2005)), were used. Luminescent OPK assays were performed as described above but with determination of relative luciferase units (RLUs) using a Perkin Elmer ENVISION Multilabel plate reader (Perkin Elmer).

[3] = test system: luminescent P. aeruginosa serogroup 011 strain (9882-80.lux); test: OPK assay, 9882-80.lux; format: cell-based, Pseudomonas aeruginosa; settings: strain 9882-80 (O11); FIG. 2B
Method: as §2
The ability of the WapR-004 and Cam-003 antibodies to mediate OPK activity against another clinically relevant 0-antigen serotype strain, 9882-80.lux, was evaluated.

[4] = test system: P. aeruginosa strains 6206 and 6294; test: Acute pneumonia model in mice, histological examination of lung tissue; format: in vivo, Pseudomonas aeruginosa
[5] = test system: P. aeruginosa strain 6077 (O11-cytotoxic); test: Corneal infection (ocular keratitis) model in mice; format: in vivo, Pseudomonas aeruginosa
[6] = test system: P. aeruginosa strains (PAO1, 33356, 6294, 6077, 6206); test: Acute pneumonia model in mice, organ burden (CFU in lung, spleen, kidneys); format: in vivo, Pseudomonas aeruginosa
Method: as §1
Organ burden of Pseudomonas-infected mice was also studied in response to administration of V2L2. FIG. 14 (A) Mice were treated with either 1 mg/kg R347 (control), or 1 mg/kg, 0.2 mg/kg, or 0.07 mg/kg of V2L2 and then were infected intranasally with 1.2×10^6 cfu of Pseudomonas 6206. FIG. 14 (B) Mice were also treated with either 15 mg/kg R347 (negative control); 15.0 mg/kg, 5.0 mg/kg, or 1.0 mg/kg mAb166 (positive control); or 5.0 mg/kg, 1.0 mg/kg, or 0.2 mg/kg V2L2 and then were infected intranasally with 5.5×10^6 cfu of Pseudomonas 6206.
The in vivo effect of combination administration of anti-Psl and anti-PcrV binding domains was further studied in mice using the antibodies V2L2 and WapR-004 (RAD). Groups of mice were treated with R347 (2.1 mg/kg—negative control), V2L2 (0.1 mg/kg), W4-RAD (0.5 mg/kg), or V2L2/W4 combination (either 0.1, 0.5, 1.0 or 2.0 mg/kg each). Twenty-four hours post-administration of antibody, all mice were infected with an inoculum containing 5.25×10^5 cfu 6206 (O11-ExoU+). Twenty-four hours post infection, lungs, spleens, and kidneys were harvested, homogenized, and plated for colony forming unit (CFU) identification per gram of tissue.

[7] = test system: P. aeruginosa strain 6077 (O11-cytotoxic); test: Corneal infection (ocular keratitis) model in mice; format: in vivo, Pseudomonas aeruginosa; settings: C3H/HeN mice; IP, 16 hours prior to infection with 6077 1×10^6 CFU; graded at 48 h; FIG. 8H
Method: as §1
Cam-003 and WapR-004 efficacy was next evaluated in a P. aeruginosa corneal infection model which emphasizes the pathogens ability to attach and colonize damaged tissue. […] FIG. 8 (H): The activity of anti-Psl and anti-PcrV monoclonal antibodies V2L2 was tested in a P. aeruginosa mouse ocular keratitis model. […]

[8] = Table 5, 6206 5.25×10^5 cfu, R347 2.1 mg/kg, V2L2 0.1 mg/kg, WapR-004 0.5 mg/kg
[9] = Table 6A, strain 6294 1.33×10^7 CFU, 0.2 mg/kg (combination 0.1 mg/kg ea)
[10] = Table 6B, strain 6294 1.7×10^7 CFU, 0.2 mg/kg (combination 0.1 mg/kg ea)
[11] = Table 7, strain 6206 9.25×10^5 CFU, 0.2 mg/kg (combination 0.1 mg/kg ea)
[12] = 6294 (06) and 6206 (O11), FIG. 7E-F

B1: WapR-004: anti-Psl human IgG1 monoclonal antibody; VH SEQ ID NO:11, VL SEQ ID NO:12 (antibody, V domains shown)
VH: EVQLLESGPGLVKPSETLSLTCNVAGGSISPYYWTWIRQPPGKGLELIGYIHSSGYTDYNPSLKSRVTISGDTSKKQFSLHVSSVTAADTAVYFCARGDWDLLHALDIWGQGTLVTVSS
VL: EIVLTQSPSSLSTSVGDRVTITCRASQSIRSHLNWYQQKPGKAPKLLIYGASNLQSGVPSRFSGSGSGTDFTLTISSLQPEDFATYYCQQSYSFPLTFGGGTKLEIK
modifications: human IgG1 constant regions not cited; WapR-004 VH; WapR-004 & WarR-004RAD VL
survival ([1]; strain 6077 (O11) 8×10^5 or 6×10^5 CFU, 5 and 1 mg/kg, FIG. 6E-F): significant concentration-dependent survival
OPK activity (killing of PAO1.lux) [2]: superior OPK activity
OPK activity [3]: OPK activity extends to strain 9882-80 (O11)
Inflammatory Infiltrate [4, 8]: PMN 2-3+
Involved Lung Surface Area [4, 8]: 50%
Overall Impression [4, 8]: Broncho interstitial pneumonia
Overall Impression ([4]; Table 6A, BALB/c mice, strain 6294 1.33×10^7 CFU, 0.2 mg/kg (combination 0.1 mg/kg ea)): Broncho interstitial pneumonia
Hemorrhage (extent) [4, 9]: Extensive
Inflammatory Infiltrate [4, 9]: PMN 3+
Involved Lung Surface Area [4, 9]: (57%), mod epithelial injury,
Overall Impression ([4]; Table 6B, BALB/c mice, strain 6294 1.7×10^7 CFU, 0.2 mg/kg (combination 0.1 mg/kg ea)): Broncho interstitial pneumonia
Bacteria [4, 10]: Neg-2+
Inflammatory Infiltrate [4, 10]: PMN 2+
Involved Lung Surface Area [4, 10]: (40%), mod epithelial injury,
Overall Impression ([4]; Table 7, BALB/c mice, strain 6206 9.25×10^5 CFU, 0.2 mg/kg (combination 0.1 mg/kg ea)): Broncho interstitial pneumonia
Bacteria [4, 11]: Neg-1+
Inflammatory Infiltrate [4, 11]: PMN 2+
Involved Lung Surface Area [4, 11]: (36%), mild epithelial injury,
corneal pathology and bacterial counts vs negative control-treated animals ([5]; 6077, antibody 24 hours prior to infection, FIG. 8A-D, F-G): significantly less pathology and reduced bacterial counts in total eye homogenates
Cam-003 (45 mg/kg) vs. WapR-004 (15 mg/kg), Mann-Whitney U-test P ([5]; FIG. 8F-G): 0.0025
Cam-003 (45 mg/kg) vs. WapR-004 (45 mg/kg), Mann-Whitney U-test P ([5]; FIG. 8F-G): 0.018
WapR-004 (45 mg/kg) vs. WapR-004 (15 mg/kg), Mann-Whitney U-test P ([5]; FIG. 8F-G): 0.1331
organ burden ([6]; 6206 (O11-ExoU+) 5.25×10^5 cfu, V2L2 0.1 mg/kg, W4-RAD 0.5 mg/kg, FIG. 15): effective in lowering organ burden
viable CFU vs. R347, Mann-Whitney U-test P ([6]; 6206, kidney, 5 mg/kg, FIG. 7F): 0.0268
viable CFU vs. R347, Mann-Whitney U-test P ([6]; 6206, kidney, 15 mg/kg, FIG. 7F): 0.0208
viable CFU vs. R347, Mann-Whitney U-test P ([6]; 6206, lung, 1 mg/kg, FIG. 7F): 0.0079
viable CFU vs. R347, Mann-Whitney U-test P ([6]; 6206, lung, 5 mg/kg, FIG. 7F): 0.0006
viable CFU vs. R347, Mann-Whitney U-test P ([6]; 6206, spleen, 1 mg/kg, FIG. 7F): 0.0047
viable CFU vs. R347, Mann-Whitney U-test P ([6]; 6206, spleen, 5 mg/kg, FIG. 7F): 0.0261
viable CFU vs. R347, Mann-Whitney U-test P ([6]; 6206, spleen, 15 mg/kg, FIG. 7F): 0.0059
dissemination to the spleen and kidneys [6, 12]: effective at reducing P. aeruginosa dissemination to the spleen and kidneys
organ burden [6, 12]: reduced organ burden
viable CFU vs. R347, Mann-Whitney U-test P ([6]; 6294 ~1×10^7 CFU, lung, 1 mg/kg, FIG. 7E): 0.0002
viable CFU vs. R347, Mann-Whitney U-test P ([6]; 6294 ~1×10^7 CFU, lung, 5 mg/kg, FIG. 7E): 0.0004
viable CFU vs. R347, Mann-Whitney U-test P ([6]; 6294 ~1×10^7 CFU, lung, 15 mg/kg, FIG. 7E): 0.0011
viable CFU vs. R347, Mann-Whitney U-test P ([6]; 6294 ~1×10^7 CFU, spleen, 5 mg/kg, FIG. 7E): 0.0014

B2: WapR-004RAD: identical to WapR-004 except for an amino acid substitution G98A of the VH; VH SEQ ID NO:74, VL SEQ ID NO:12 (antibody, V domains shown)
VH: EVQLLESGPGLVKPSETLSLTCNVAGGSISPYYWTWIRQPPGKGLELIGYIHSSGYTDYNPSLKSRVTISGDTSKKQFSLHVSSVTAADTAVYFCARADWDLLHALDIWGQGTLVTVSS
VL: EIVLTQSPSSLSTSVGDRVTITCRASQSIRSHLNWYQQKPGKAPKLLIYGASNLQSGVPSRFSGSGSGTDFTLTISSLQPEDFATYYCQQSYSFPLTFGGGTKLEIK
modifications: WapR-004RAD VH; WapR-004 & WarR-004RAD VL
animals survived ([1]; 6206, W4-RAD 0.2 mg/kg, monitored 120 hours, FIG. 21A): Approximately 90%
effect on survival ([1]; 6294, W4-RAD 0.2 mg/kg, FIG. 24): did not affect survival
corneal pathology and CFU in total eye homogenates vs R347 [7]: significantly less pathology and reduced bacterial colony forming units (CFU) in total eye homogenates
organ burden in lung, spleen, kidney ([6]; 6294 2.5×10^7 CFU, bispecifics 0.7 mg/kg, W4-RAD 0.5 mg/kg, FIG. 23A): had no effect on decreasing organ burden

Source: patent publication US11203633B2, “Polynucleotides encoding antibodies or antigen binding fragments thereof that bind pseudomonas perv” (priority 2011, dated 2021)
